Test results: the supplement of paper PMC12636428

system: Saccharomyces cerevisiae; experiment: transcriptional activation domain activity (GFP:mCherry ratio, weighted mean of sorted bins, harmonized to initial dataset scale) (arbitrary fluorescence ratio units); higher = stronger transcriptional activation; conditions: beta-estradiol 1 µM; induction time 4 h
Summary of the method: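 Activation activity, the read-weighted mean of bin median fluorescence averaged across barcodes, was linearly mapped onto the scale of the initial dataset. It was measured for barcoded protein tiles fused to an estradiol-inducible synthetic transcription factor at URA3 in GFP-reporter yeast diploids. Cultures diluted 1:5 into SC with 1 uM beta-estradiol were held 4 hours at 30 °C, sorted into 8 bins by GFP:mCherry ratio, and barcode-sequenced, and tiles under 50 reads were discarded.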

| Sequence | transcriptional activation domain activity |
| --- | --- |
| LLSEESLRTMGLRTVKDILLRCASERAILTLVDFPLRVLVMVAQIRTGLWVRN | 36800 |
| MAIGLSACSILFLFSFTCVFFSFLSCLFLHPFFFLSFLFSLSLSLSLFFFFFA | 66200 |
| MVFSLASLSLLCLCLISFFFYLFFFFFFYQIPSPCFALWLANFYLSCRAWLDK | 46600 |
| ILCLSFSIKVLLCFLLIFFPLNVEPPPPDFFFHFLCLWFFFVISFLRFHLLYF | 59900 |
| MAETTTSDSGASSSTALQRGKACLRCRKRKMRCDGQKPACSQCVKARKTDACE | 34100 |
| DSEADSEDDDNGAESDKKMPVADKSEHQTGILSKLYKLNVYGEGSFFKPHKDT | 45700 |
| SGPSSNDELIEKGRMLVDELSEAGGGIKDGARNNTSSLYLHLVRVSIDKFSHA | 18900 |
| MFCLRSWIPILFFLTNASPIYLLLFISATYTLNRPCVYCSLLLGILVLALFDF | 28600 |
| MGSTIVFSVVFIWFFLVSFQQLLPFPKGTFFLLFLFPFSLSLPESSCIIFLAF | 51800 |
| YKNLSKYPIVKSAVALISLVQSLCRTMHSMPFHTEEYIRMIEVVLLKYYEKCY | 34300 |
| SSRYIQTSTLTRLLLTYRQWIFVVVYSHLLLLDHSSQIWWRWMNIFFTLVIWS | 62300 |
| KDPWHIKALVAFVWILDVAHTILISCFVYTLTIVYYGRAQELLKFICLYILIL | 45100 |
| VVLPCLNLVLAVRKYFVRYLMMPRYSTLQVFGEENAAGYRPMLFWEIEPWYVA | 41800 |
| LAESQRQNQQGGRGRGGRSLFDRTERGRGNRRGGHQGNGHHARQDEAANGGAE | 17600 |
| VLCTCVPRQLVEPLVKLRKIHRRLAMTWIAALDYFASYRLVPFIRMIMELESV | 44700 |
| AAAVEKTEEEKPVAAAAAPAAEKEKAPAAKAKKATTTKKAAAPKKAAAPKAKK | 27700 |
| FRVNLMSCIVARLSKKSWIRSVSFPADLTGTASLEIVRLLNRMVKEKRFNIHP | 36300 |
| HKLKHVLAEHGARMSIHLGRRQVTHVILGRPAGGGGGAGGGLAGGKLQKEIQK | 42500 |
| MNAFRPLHFLFYFIFLLLSMKALRFFIFSIFFFIFLHLHLCIHIYIALLFSYP | 30600 |
| EKTVEQPEELKETGGKEPRIERKLPLQYDHHQRKTRDNQMFQLAVVIYFLGKL | 40300 |
| GKPRGYAFVEYEREKDMKAAYKEGDGMKITGRRVVVDVERGRTVKGWKPRRLG | 36700 |

| Sequence | transcriptional activation domain activity |
| --- | --- |
| CVRVLCISFSLTLSSSCLLVGIVLRWSLCCLLYFVCVPLHLDTLLSFSSIPTL | 50600 |
| MPAVKKDAPSQRQQDKESKRARGALSCAECRRLKLKCDKTVPCSSCKRRGCSA | 34600 |
| SITILVNIFLLHGSVKFIQKCLQYIGYIAEEVRSSLPLHKCLYWPLLIMLRLL | 45200 |
| DGGDGDDGSGGEVERAGKSGRAKREGKRGAEEEEEERGDGRAARKTAEKRKKR | < 6570 |
| DMDEEEGGAPAKPVGACARCKNLKVKCEFKTETDPCKRCFNGRHDCVTPGRKK | 28500 |
| GCWGETWWYTMQFGALLAEGAAQHWLGLLEQKVLPWSRYGMMQKGLRRLFGYV | 75600 |
| KDYSVEAGIRFLQFIIHKCITVDIGVLCDIIDKVYGSLVIINCLRRYRNLHNL | 48500 |
| MALFRALPLKIRNLIYLKLLNVSPLWISPIWIITDYYKERPIPLLKGLSLFLV | 45400 |
| CVCRMILAPLLHLFISFFLLCMAAVASPPLRWILWYYWGCFTVQEVNWHMLRF | 45500 |
| IQAAGLWQCRYSSYGIECVRYVFFFTMFLFLLRSGWYLSSAFFLGLLWHQLSF | 39600 |
| FLYLLSRYLGLAVHITNTVFAILVGHYQVIPVHLCRIGLVYQGAVLFVMLGIL | 46900 |
| GVSMGSGYFFMVWLTMWLYSELNFWVIDGVCSLVEMQWMPFFILSWIICQVAG | 50800 |
| SKEREQRERSVEQEQPRRKNGRRRRDKRDEQRRRNRRRSSSSRRESRSSRRES | 44600 |
| MSDAAAPAPAPVEEVKPAEAAPEVVPAPRPLRRSPRPRRLRPLRPPPPSAAAE | 28400 |
| MAPETKNKKRKSGVTASSPSTKKLKKAEAPVAEEAPAPVKSTKKSKAAAPKAE | 43300 |
| RLFAELFMFSICLFSRVLSYFSVFQLQLINVLMYFLPLMIICGYWAGLLNVAI | 52500 |
| GRWSYLRTSEMILTFFYKNIMWTLVLFWYQLMCGFTGTMMFDYSYITLYNLVF | 46300 |
| NRKTIGKQDPYCAARLGKEAKKTDTDRRGGQTPRWDQELRYTVHDSPDYYQLK | 33300 |
| MSFKFFFCLLIPSFSLFKITYAWSYLMILEVVFSPFFSQVVVFVLFILHHFYH | 53000 |
| AKRARKSSSSAAAKEEEGQPQQTAPAAAANGTAADEARADTTTASTKSDKKQK | 28800 |
| FVWILETLNTGFSAHAIEYFAIYNKGNMMMLWSVPWTISVSNNLLCSTLGLNH | 32200 |

| Sequence | transcriptional activation domain activity |
| --- | --- |
| TWILNIPWPQTHMVAVLSLAGFLYFLILDIYEYMCYSYLVLLGTMWFVDIMFF | 73600 |
| EGEEDKPKAARGRKRKADADAEEPPAKKTKPASKAAPGSKPASKAAASKPASK | 25400 |
| YCGDDMHSLRIVVAVLALLTTLKSIHAFAIVWVQSIVHFGDLQGAILLNYTAW | 76900 |
| ALLFLNTLLELLESYHKSQYLAEILSRLQVDWRSLWSWLSVFIRSYANLKMGT | 28300 |
| MSCLDWNVFVFFFYLSILIFRLITHHYLSVFDLFFLYPFFLFLFTFPPTSFLL | 49500 |
| KDEVMKIKPVQKQTTAGQRTRFKAVVIVGDSNGHVGLGIKSAKEVATAIRAAI | 55100 |
| RQTEKPLRSVYCYLIWGEIFVCLVFSIICWCHLYGLFGGSFEFYFMILTLWAL | 33000 |
| KQYCVRPNSGRIEPGKEVEVTVLLQAMKQEPPIDAKCRDKFLVQSVAVTADKE | 51300 |
| HISCLIISVFLCELMVHIPLSTLFYVGLYFPVHFISTPGYFYFIYCILFQLFL | 47300 |
| FLSCLLAMEIIQHYMYVVAIKDRKAWIGDSPFELSMIGLWNLVIVWLKLLLPW | 59900 |
| RRKEKKPRFAKKDKGSKEPVSKTCRIALRIKLCHGNICVMEVSLSVLASLVLH | 53100 |
| GLHFERRLFHLLFSTVCISICFCLLVFNLLIQNYMKKADQKEGMAAFAEKRKP | 28000 |
| RGDEDADGDDDEGEGSGDKTGDAEAGAAPSSGAGGGSSNSKKNKKKKNKKKGK | 51900 |
| MFTLPSYSLFLSVHSFLIYPLPSCSFFFRISSPSIFTLSSCLSFPPVCPSLLF | 71700 |
| DVEMLKGLALRNPLEEGEDEAASLSQYAVNRQILLTYVILKLKLIRGKCILFV | 35000 |
| NQQPVFRAKYLLRQLFHLCNRTEHELRTLWTPAMVVLVARRLFDSIHPALGSL | 58300 |
| GEEVSAPLPKPKGKGGRPRKHPRPEPVASEYEVDGEPTPKRARRAIKSKRGRR | 23500 |
| MFTRLLRYLHCSHFCFAIATRFRGWIGLFSPLYVSCFSQPFRFRYLGCLLFLF | 52800 |
| KLEYVSLGRIEIVACFDKYTMASKGIHMLLGCCFSKIKFVCLSQADYQAAVLL | 67100 |
